Laboratory results: publication PMC8879858 (Nature plants, 2021)
Where no end group is shown, it is not given here. fluorescein = fluorescein label covalently attached to the C-terminal cysteine

Target: T1, cpSRP43-FL (Arabidopsis thaliana, UniProt O22265 57-373)
T1 sequence (looked up): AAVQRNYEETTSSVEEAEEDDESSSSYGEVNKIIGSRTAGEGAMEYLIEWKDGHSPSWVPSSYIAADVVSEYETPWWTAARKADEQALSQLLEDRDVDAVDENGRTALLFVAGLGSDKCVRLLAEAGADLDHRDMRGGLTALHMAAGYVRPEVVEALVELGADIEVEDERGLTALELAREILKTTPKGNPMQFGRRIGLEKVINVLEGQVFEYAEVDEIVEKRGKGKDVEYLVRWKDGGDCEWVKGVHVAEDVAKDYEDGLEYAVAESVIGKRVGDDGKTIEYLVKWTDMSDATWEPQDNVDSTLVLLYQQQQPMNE
Assay: fluorescence polarisation

## QKQKAPPGTARRKRKAC(fluorescein) [fluorescein-labeled cpSRP54M peptide]
  binding result: binds
